Columns and labels:
MDA-MB-435 tumor on CAM = test: MDA-MB-435 tumor induced angiogenesis on chick embryo chorioallantoic membrane (CAM); assay type: in vivo
Experimental: MDA-MB-435 tumor masses were inoculated on CAM of 10-day chick embryos. CN at various dosages were injected intravenously into CAM on day 2 post-inoculation. […] Chick embryo is immunodeficient, and thus allows the growth of implanted MDA-MB-435 tumor. The embryos are incubated at 37° C. with humidity at 60%. CN at various dosages was injected intravenously into CAM on day 2 post-inoculation. […] On the top (FIG. 16A) is the control embryo. The vessels are distributed in a convergent manner with the tumor mass in the center. In the middle (FIG. 16B) is the CAM treated with 20 μg of CN. On the bottom (FIG. 16C) is the CAM treated by 150 μg of CN.

T24 cells [1] = test: Adhesion of T24 cells to immobilized vitronectin; assay type: cell-based, human
Experimental: Individual wells of 96-well plates were coated at 4° C. overnight with 100 μl of vitronectin (1 μg/well). Excess proteins were washed off with three washes of phosphate buffered saline (PBS), followed by blocking with 1% bovine serum albumin (BSA) in PBS. Aliquots (100 μl) of cells (5×10^5 cells/ml) were incubated at room temperature for 20 minutes with antibodies or contortrostatin before being applied to the coated wells. Treated cells were allowed to adhere to the wells for 30 minutes at 37° C. Unbound cells were washed off with serum-free medium. Cell adhesion was quantified either by CellTiter 96™ Aqueous Proliferation Assay kit (Promega, Madison, Wis.). Each inhibitor concentration was tested in triplicate, and assays were performed at least three times yielding identical results.

MDA-MB-435 cells = test: Phosphotyrosine immunoblot, MDA-MB-435 cells; assay type: cell-based, human
Experimental: (§1) Cell culture, preparation and stimulation—T24 cells were maintained in RPMI 1640 medium containing 5% fetal bovine serum, and MDA-MB-435 and 293 cells were maintained in Dulbecco's modified Eagle's medium with 10% serum at 37° C. in 5% CO2. Cells were washed with phosphate-buffered saline (PBS) and starved in the appropriate serum-free medium for 6 h at 37° C. Cells were detached by brief treatment with 0.05% trypsin/0.02% EDTA in PBS and collected by centrifugation, resuspended in soybean trypsin inhibitor (1 mg/ml in serum-free medium), and washed in 2% bovine serum albumin/serum-free medium. Cells were maintained in suspension for 1 h in 2% bovine serum albumin/serum-free medium at 37° C. with end-over-end agitation. Quiescent cells (3×10^6/ml) were treated with disintegrins or other reagents while in suspension, or were allowed to adhere to Matrigel (Becton Dickinson, Bedford, Mass.) diluted 1:100 with serum-free medium during treatment.
(§2) Lysate preparation and immunoprecipitation—Suspended and adherent cells were washed twice with cold PBS and lysed in cold lysis buffer (50 mM Tris, pH 8.0, 150 mM NaCl, 1% Nonidet P-40, 0.5% deoxycholate, 0.1% SDS, protease inhibitor cocktail, 1 mM sodium pyrophosphate, 1 mM sodium orthovanadate, 50 mM sodium fluoride). After 10-15 min incubation on ice, insoluble material was removed by centrifugation at 14,000 RPM in a microcentrifuge for 15 min. Supernatants were collected and total protein concentrations standardized by the BCA protein assay (Pierce, Rockford, Ill.). Immunoprecipitation was carried out by incubating whole cell lysates (200 μg total protein) with 1.25 μg anti-FAK or anti-CAS mAb 4-6 h at 4° C. followed by 20 μl protein G-agarose overnight at 4° C. Immunoprecipitates were washed 4 times in lysis buffer without inhibitors and dissociated by adding SDS-PAGE sample buffer and boiling 5 min. Whole cell lysates (30 μg total protein) or immunoprecipitates were resolved by 7.5% SDS-polyacrylamide gel electrophoresis and transferred to nitrocellulose membranes.
Immunoblotting—Membranes were blocked with 5% nonfat milk/Tris-buffered saline/0.1% Tween 20 (blocking buffer) 1 h at room temperature or overnight at 4° C. Primary antibody incubations were performed in blocking buffer for 1 h at room temperature. After washing in Tris-buffered saline/0.1% Tween 20, membranes were incubated with horseradish peroxidase-conjugated secondary antibody in blocking buffer 1 h at room temperature. Membranes were washed extensively. Inimunoblots were developed using Super Signar West Pico Chemiluminescent Substrate from Pierce. Densitometry was performed using UN-SCAN-IT™, software (Silk Scientific, Orem, Utah))

canine PRP = test: ADP-induced platelet aggregation in canine PRP; assay type: cell-based; conditions: 20 μM ADP
Experimental: Column fractions obtained during purification were assayed for activity using fresh human platelet rich plasma (PRP) prepared from blood obtained from human volunteers who had had no medication for at least two weeks. Blood (36 ml) was drawn into 4 ml of 0.1 M citrate and centrifuged at 150×g for 20 minutes. The supernatant, PRP, was removed and the remaining blood was centrifuged at 10,000 RPM to obtain platelet poor plasma (PPP). Platelet counts were adjusted to 250,000 platelets/μl using a Coulter counter. A Helena four channel aggregometer was used to monitor platelet aggregation. Inhibition of ADP-induced platelet aggregation was monitored at 37° C. by adding venom fractions one minute prior to the addition of ADP (10-20 μM final concentration). […] Rabbit and canine PRP was prepared by the same procedure and used in the studies described below.
CN inhibited ADP-induced platelet aggregation in human, canine, and rabbit PRPs (FIG. 6). Empty circles represent human platelet rich plasma, solid circles represent canine PRP, and empty triangles represent rabbit PRP. Varying concentration of CN were preincubated for one minute with PRP prior to the addition of ADP.

T24 cells [2] = test: Phosphotyrosine immunoblot, T24 cells; assay type: cell-based, human
Experimental: as §1
as §2, with “membranes. […]” for “membranes.”

[3] = tested on: human melanoma M24 met cells; test: M24 met cell adhesion to extracellular matrix proteins; assay type: cell-based
Excerpt: The compositions of the present invention also have utility in inhibiting metastasis in melanoma, carcinoma and sarcoma patients. […] Thus, methods and compositions for preventing metastases in melanoma, carcinoma and sarcoma patients are also contemplated as within the scope of the present invention.

purified (GP)IIb/IIIa = purified (GP)IIb/IIIa (Homo sapiens, UniProt P05106+P08514); test: Fibrinogen-(GP)IIb/IIIa ELISA; assay type: binding
Excerpt: Several lines of evidence indicate that CN inhibits platelet aggregation by binding specifically to the (GP)IIb/IIIa integrin receptor. […] Additionally, the partial amino acid sequence of CN indicates considerable similarity with other disintegrins known to bind to (GP)IIb/IIIa. Finally, CN blocks 7E3 binding to (GP)IIb/IIIa. 7E3 is a murine monoclonal antibody that specifically binds to (GP)IIb/IIIa, thereby inhibiting human and canine platelet aggregation [Coller, B. S. et al., J. Clin. Invest. 72:325 (1983)].

B1: contortrostatin (protein)
chain: DAPANPCCDAATCKLTTGSQCADGLCCDQCKFMKEGTVCRRARGDDLDDYCNGISAGCPRNPFHA
- tumor mass on CAM (MDA-MB-435 tumor on CAM; 20 μg of CN): smaller than that on control CAM
- tumor induced angiogenesis (vessels) (MDA-MB-435 tumor on CAM; 20 μg of CN intravenously): thinner and less dense than control
- tumor mass on CAM (MDA-MB-435 tumor on CAM; 150 μg of CN): necrotic tumor mass with volume significantly smaller than control and low dose CN
- tumor induced angiogenesis (vessels) (MDA-MB-435 tumor on CAM; 150 μg of CN intravenously): the vessels are even thinner and the convergent distribution pattern disappears completely
- adhesion of T24 cells to vitronectin, in words (T24 cells [1]; FIG. 19 A, B): inhibits adhesion of T24 completely
- inhibition of adhesion of T24 cells to vitronectin (T24 cells [1]; at a concentration less than 10 μg/ml): 100%
- concentration giving maximal tyrosine phosphorylation (MDA-MB-435 cells; suspended cells, 10 min): 10 nM
- lowest concentration increasing tyrosine phosphorylation of FAK and CAS (MDA-MB-435 cells; tumor cells, soluble contortrostatin): 1 nM
- IC50 of ADP-induced canine platelet aggregation (canine PRP): 1.8 mg/L
- tyrosine phosphorylation in cells adherent to Matrigel (T24 cells [2]): significant additional increase
- tyrosine phosphorylation at high concentration (T24 cells [2]; 1000 nM): reduced levels of tyrosine phosphorylation
- tyrosine phosphorylation of 120-140 kDa proteins (T24 cells [2]; suspended cells): also observed
- M24 met cell adhesion to fibronectin and vitronectin [3]: inhibit
- (GP)IIb/IIIa binding to immobilized fibrinogen (purified (GP)IIb/IIIa): effectively blocks (GP)IIb/IIIa binding

Source: US6710030B1, “Contortrostain (CN) and methods for its use in preventing metastasis and other conditions” (University of Southern California, priority 1993, dated 2004)
